Substrate: Nc1nc2nc[nH]c2c(=O)[nH]1
Assay: purified protein, by the assay type
Format: biochemical, E. coli
Details: other: wild-type, guanine as substrate, 20 μM tRNA, 37 °C, pH 7.3

B1: E. coli TGT Wild-Type (Escherichia coli K-12) (protein)
chain: MKFELDTTDGRARRGRLVFDRGVVETPCFMPVGTYGTVKGMTPEEVEATGAQIILGNTFHLWLRPGQEIMKLHGDLHDFMQWKGPILTDSGGFQVFSLGDIRKITEQGVHFRNPINGDPIFLDPEKSMEIQYDLGSDIVMIFDECTPYPADWDYAKRSMEMSLRWAKRSRERFDSLGNKNALFGIIQGSVYEDLRDISVKGLVDIGFDGYAVGGLAVGEPKADMHRILEHVCPQIPADKPRYLMGVGKPEDLVEGVRRGIDMFDCVMPTRNARNGHLFVTDGVVKIRNAKYKSDTGPLDPECDCYTCRNYSRAYLHHLDRCNEILGARLNTIHNLRYYQRLMAGLRKAIEEGKLESFVTDFYQRQGREVPPLNVD
**Q.** For B1, which Km is on record?
**A.** 0.35 (0.03) μM

**Q.** What about the kcat of the same protein?
**A.** 0.00629 s⁻¹

Source: paper PMC3124622
